Test results: the Immune Epitope Database (IEDB)
Blank lines part the entries; values can stand above or below the sequence they belong to.

How the values were obtained:
HLA-B*07:02 = test: IEDB peptide-MHC binding, purified MHC/competitive/radioactivity; ≥ and ≤ were set here for values at or beyond the usual limits of such assays
HLA-B*42:01 = test: as above
HLA-B*53:01 = test: as above
HLA-A*03:01 = test: as above
HLA-A*30:01 [1] = test: as above; conditions: source organism: Mus musculus
HLA-A*31:01 = test: as above
HLA-A*33:01 [2] = test: as above
HLA-A*66:01 [3] = test: as above
HLA-A*68:01 = test: as above
HLA-A*11:01 [4] = test: IEDB peptide-MHC binding, purified MHC/competitive/radioactivity; filed as Kd, often an IC50 or EC50 that approximates it; ≥ and ≤ were set here for values at or beyond the usual limits of such assays; conditions: source organism: Mus musculus
HLA-B*35:03 = test: IEDB peptide-MHC binding, purified MHC/competitive/radioactivity; ≥ and ≤ were set here for values at or beyond the usual limits of such assays; conditions: source organism: Mus musculus
HLA-B*35:01 = test: IEDB peptide-MHC binding, purified MHC/competitive/radioactivity; filed as Kd, often an IC50 or EC50 that approximates it; ≥ and ≤ were set here for values at or beyond the usual limits of such assays; conditions: source organism: Mus musculus
HLA-B*51:01 = test: as above; conditions: source organism: Mus musculus
HLA-B*54:01 = test: as above; conditions: source organism: Mus musculus
HLA-A*11:01 [5] = test: IEDB peptide-MHC binding, purified MHC/competitive/radioactivity; ≥ and ≤ were set here for values at or beyond the usual limits of such assays
HLA-A*66:01 [6] = test: IEDB peptide-MHC binding, purified MHC/competitive/radioactivity; filed as Kd, often an IC50 or EC50 that approximates it; ≥ and ≤ were set here for values at or beyond the usual limits of such assays; conditions: source organism: Mus musculus
HLA-A*30:01 [7] = test: as above; conditions: source organism: Homo sapiens
HLA-A*33:01 [8] = test: as above; conditions: source organism: Homo sapiens

Sequence: GPGAGSLQPLAL
IC50 (HLA-B*07:02; source organism: Homo sapiens): 0.462 µM
IC50 (HLA-B*42:01; source organism: Homo sapiens): 6.07 µM
IC50 (HLA-B*53:01; source organism: Homo sapiens): 15.5 µM

Sequence: SPGDLQTLAL
IC50 (HLA-B*07:02; source organism: Mus musculus): 0.0044 µM
IC50 (HLA-B*35:03): 16.1 µM
IC50 (HLA-B*42:01; source organism: Mus musculus): 0.035 µM
IC50 (HLA-B*53:01; source organism: Mus musculus): 11 µM
Kd (HLA-B*35:01): ≥ 50 µM
Kd (HLA-B*51:01): ≥ 50 µM
Kd (HLA-B*54:01): ≥ 50 µM

Sequence: AINSEMFLR
IC50 (HLA-A*03:01; source organism: Mus musculus): 0.428 µM
IC50 (HLA-A*11:01 [5]; source organism: Mus musculus): 0.209 µM
IC50 (HLA-A*30:01 [1]): 49.8 µM
IC50 (HLA-A*31:01; source organism: Mus musculus): 0.067 µM
IC50 (HLA-A*33:01 [2]; source organism: Mus musculus): 1.08 µM
IC50 (HLA-A*66:01 [3]; source organism: Mus musculus): 4.55 µM
IC50 (HLA-A*68:01; source organism: Mus musculus): 0.109 µM

Other lines, results leading:

IC50 (HLA-A*03:01; source organism: Mus musculus): 43.6 µM
IC50 (HLA-A*30:01 [1]): 43 µM
IC50 (HLA-A*31:01; source organism: Mus musculus): 10.8 µM
IC50 (HLA-A*33:01 [2]; source organism: Mus musculus): 9.14 µM
IC50 (HLA-A*66:01 [3]; source organism: Mus musculus): 13 µM
IC50 (HLA-A*68:01; source organism: Mus musculus): 12.6 µM
Kd (HLA-A*11:01 [4]): ≥ 50 µM
Sequence: LALEVARQKR

IC50 (HLA-A*03:01; source organism: Mus musculus): 0.605 µM
IC50 (HLA-A*11:01 [5]; source organism: Mus musculus): 3.33 µM
IC50 (HLA-A*30:01 [1]): 23.3 µM
IC50 (HLA-A*31:01; source organism: Mus musculus): 13 µM
IC50 (HLA-A*33:01 [2]; source organism: Mus musculus): 25.5 µM
IC50 (HLA-A*68:01; source organism: Mus musculus): 13.4 µM
Kd (HLA-A*66:01 [6]): ≥ 50 µM
Sequence: TLALEVARQK

IC50 (HLA-A*03:01; source organism: Homo sapiens): 20.9 µM
IC50 (HLA-A*11:01 [5]; source organism: Homo sapiens): 37.1 µM
IC50 (HLA-A*31:01; source organism: Homo sapiens): 39.4 µM
IC50 (HLA-A*66:01 [3]; source organism: Homo sapiens): 48.5 µM
IC50 (HLA-A*68:01; source organism: Homo sapiens): 41.5 µM
Kd (HLA-A*30:01 [7]): ≥ 50 µM
Kd (HLA-A*33:01 [8]): ≥ 50 µM
Sequence: PLALEGSLQ

IC50 (HLA-A*03:01; source organism: Homo sapiens): 17.5 µM
IC50 (HLA-A*11:01 [5]; source organism: Homo sapiens): 34.5 µM
IC50 (HLA-A*31:01; source organism: Homo sapiens): 38.4 µM
IC50 (HLA-A*33:01 [2]; source organism: Homo sapiens): 3.27 µM
IC50 (HLA-A*66:01 [3]; source organism: Homo sapiens): 0.515 µM
IC50 (HLA-A*68:01; source organism: Homo sapiens): 0.066 µM
Kd (HLA-A*30:01 [7]): ≥ 50 µM
Sequence: LALEGSLQKR
